Data on 125 sequences can be found in the supplement of paper PMC9112550, “Optimization of the antimicrobial peptide Bac7 by deep mutational scanning” (BMC Biology, 2022).
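Further: peptides expressed intracellularly from a pBAD plasmid library in pooled LB shake-flask culture, induced with 0.3% L-arabinose, DNA abundance read by NGS, three biological replicates, DESeq2 with apeglm shrinkage.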

The subject of the data set is Escherichia coli TOP10. As to the kind of experiment: shrunken log2 fold change of peptide-encoding DNA abundance (4.5 h post-induction vs induction); higher = less antimicrobial activity (less host growth inhibition). To be noted: time post-induction: 4.5 h; library: site-saturation at positions 5, 18, 19, 20.
RRIRGRPPRLPRPRPRPWGLPRP: the “shrunken log2 fold change” value turned out to be 0.0474.
The figure for RRIRTRPPRLPRPRPRPMRKPRP is 0.375; for RRIRRRPPRLPRPRPRPRHTPRP it is 0.268.
The figure for RRIRVRPPRLPRPRPRPREAPRP is 0.0545.
Regarding RRIRPRPPRLPRPRPRPKDRPRP, the “shrunken log2 fold change” value was -0.114.
The figure for RRIRFRPPRLPRPRPRPVCVPRP is -0.168.
The figure for RRIRPRPPRLPRPRPRPLRWPRP is 0.588; for RRIRYRPPRLPRPRPRPKEDPRP it is -0.122; for RRIRLRPPRLPRPRPRPLNIPRP it is -0.221.
The figure for RRIRRRPPRLPRPRPRPGCYPRP is 0.17; for RRIRCRPPRLPRPRPRPQMVPRP it is 0.151.
As to RRIRVRPPRLPRPRPRPHWNPRP, the “shrunken log2 fold change” value was -0.343.
The figure for RRIRMRPPRLPRPRPRPLGMPRP is -0.112; for RRIRLRPPRLPRPRPRPYWLPRP it is -0.54.
The figure for RRIRHRPPRLPRPRPRPGSQPRP is 0.0187.
The figure for RRIRARPPRLPRPRPRPDKDPRP is 0.083; for RRIRWRPPRLPRPRPRPHVYPRP it is -0.132; for RRIRTRPPRLPRPRPRPEVNPRP it is 0.131.
On to RRIRRRPPRLPRPRPRPCSKPRP, for which the “shrunken log2 fold change” value is -0.123.
The figure for RRIRYRPPRLPRPRPRPITAPRP is -0.00947; for RRIRKRPPRLPRPRPRPGQQPRP it is 0.0114; for RRIRPRPPRLPRPRPRPSRGPRP it is 0.839.
Take RRIRWRPPRLPRPRPRPYMCPRP: the “shrunken log2 fold change” value is 0.00232.
The figure for RRIRIRPPRLPRPRPRPNRKPRP is 0.00157; for RRIRIRPPRLPRPRPRPWSQPRP it is -0.738; for RRIRTRPPRLPRPRPRPGGEPRP it is 0.443.
The figure for RRIRTRPPRLPRPRPRPQSPPRP is -0.0309.
For RRIRQRPPRLPRPRPRPCASPRP, the “shrunken log2 fold change” value is -0.0156.
The figure for RRIRFRPPRLPRPRPRPQTVPRP is -0.211.
The figure for RRIRQRPPRLPRPRPRPHEYPRP is 0.0128; for RRIRLRPPRLPRPRPRPRNLPRP it is -0.0507.
Consider RRIRTRPPRLPRPRPRPDRCPRP, for which the “shrunken log2 fold change” value was -0.0274.
The figure for RRIRDRPPRLPRPRPRPPVKPRP is 0.421.
The figure for RRIRIRPPRLPRPRPRPWVCPRP is 0.0551.
Regarding RRIRTRPPRLPRPRPRPRHHPRP, the “shrunken log2 fold change” value is -0.174.
The figure for RRIRYRPPRLPRPRPRPQAPPRP is -0.0309.
The figure for RRIRVRPPRLPRPRPRPSKFPRP is -0.579; for RRIRLRPPRLPRPRPRPGHPPRP it is 0.0236; for RRIRQRPPRLPRPRPRPYNWPRP it is -0.11.
Consider RRIRMRPPRLPRPRPRPKCSPRP, for which the “shrunken log2 fold change” value is -0.0186.
The figure for RRIRSRPPRLPRPRPRPRICPRP is -0.191.
The figure for RRIRCRPPRLPRPRPRPIEFPRP is 0.191; for RRIRQRPPRLPRPRPRPYPRPRP it is -0.258; for RRIRYRPPRLPRPRPRPICMPRP it is -0.018.
The figure for RRIRERPPRLPRPRPRPMCQPRP is -0.051.
RRIRERPPRLPRPRPRPYRVPRP: the “shrunken log2 fold change” value was -0.236.
The figure for RRIRKRPPRLPRPRPRPAPVPRP is 0.668; for RRIRTRPPRLPRPRPRPKLPPRP it is 0.214.
The figure for RRIRPRPPRLPRPRPRPASCPRP is 0.186.
The figure for RRIRGRPPRLPRPRPRPYFCPRP is -0.119; for RRIRHRPPRLPRPRPRPRMQPRP it is 0.183.
As for RRIRKRPPRLPRPRPRPLSHPRP, the “shrunken log2 fold change” value was 0.131.
The figure for RRIRGRPPRLPRPRPRPNGHPRP is 0.197.
The figure for RRIRQRPPRLPRPRPRPVEVPRP is -0.0922.
Turning to RRIRPRPPRLPRPRPRPYDTPRP, the “shrunken log2 fold change” value is 0.0749.
In the case of RRIRNRPPRLPRPRPRPNPGPRP, the “shrunken log2 fold change” value is 0.118.
The figure for RRIRQRPPRLPRPRPRPGYGPRP is -0.131.
The figure for RRIRMRPPRLPRPRPRPLANPRP is 0.235; for RRIRDRPPRLPRPRPRPLHAPRP it is 0.317.
The figure for RRIRHRPPRLPRPRPRPKREPRP is -0.0483; for RRIRRRPPRLPRPRPRPTEDPRP it is 0.477; for RRIRLRPPRLPRPRPRPRNWPRP it is 0.751.
For the sequence RRIRFRPPRLPRPRPRPPNWPRP, the “shrunken log2 fold change” value is 0.211.
The figure for RRIRLRPPRLPRPRPRPYQHPRP is -0.661; for RRIRGRPPRLPRPRPRPKHKPRP it is 0.448; for RRIRRRPPRLPRPRPRPEPPPRP it is 1.02.
For the sequence RRIRIRPPRLPRPRPRPFMKPRP, the “shrunken log2 fold change” value is -0.127.
The figure for RRIRRRPPRLPRPRPRPGFSPRP is 0.131; for RRIRNRPPRLPRPRPRPFDDPRP it is -0.00192.
On to RRIRNRPPRLPRPRPRPRIEPRP, for which the “shrunken log2 fold change” value was -0.117.
The figure for RRIRARPPRLPRPRPRPAISPRP is 0.594.
The figure for RRIRMRPPRLPRPRPRPPQHPRP is 0.817.
The figure for RRIRHRPPRLPRPRPRPHVMPRP is -0.185; for RRIRERPPRLPRPRPRPPQMPRP it is 0.208.
On to RRIRTRPPRLPRPRPRPWGRPRP, for which the “shrunken log2 fold change” value stood at 0.00879.
The figure for RRIRNRPPRLPRPRPRPSFYPRP is -0.658; for RRIRDRPPRLPRPRPRPGYHPRP it is -0.071; for RRIRNRPPRLPRPRPRPVMWPRP it is 0.351.
The figure for RRIRWRPPRLPRPRPRPLNCPRP is -0.0452; for RRIRCRPPRLPRPRPRPYAGPRP it is -0.513.
The figure for RRIRRRPPRLPRPRPRPRWAPRP is 0.206.
For RRIRMRPPRLPRPRPRPTFSPRP, the “shrunken log2 fold change” value was found to be 0.386.
Take RRIRNRPPRLPRPRPRPIRDPRP: the “shrunken log2 fold change” value is 0.201.
The figure for RRIRHRPPRLPRPRPRPWHSPRP is -0.22; for RRIRARPPRLPRPRPRPKSWPRP it is 0.89.
The figure for RRIRMRPPRLPRPRPRPEPTPRP is 2.58; for RRIRTRPPRLPRPRPRPYTSPRP it is -0.00661.
With RRIRDRPPRLPRPRPRPPMLPRP, the “shrunken log2 fold change” value was -0.0165.
The figure for RRIRVRPPRLPRPRPRPSEDPRP is 0.376.
The figure for RRIRTRPPRLPRPRPRPNMDPRP is -0.508; for RRIRNRPPRLPRPRPRPRKLPRP it is -0.0702.
The figure for RRIRWRPPRLPRPRPRPWKFPRP is 0.0588; for RRIRERPPRLPRPRPRPLRRPRP it is 0.303; for RRIRFRPPRLPRPRPRPRCKPRP it is 0.0452.
In the case of RRIRQRPPRLPRPRPRPSPTPRP, the “shrunken log2 fold change” value turned out to be 0.292.
The figure for RRIRERPPRLPRPRPRPWHMPRP is -0.0037; for RRIRMRPPRLPRPRPRPAWTPRP it is 0.08; for RRIRGRPPRLPRPRPRPWYLPRP it is -0.575.
The figure for RRIRSRPPRLPRPRPRPGPAPRP is 0.682.
The figure for RRIRWRPPRLPRPRPRPWVDPRP is -0.119.
For the sequence RRIRFRPPRLPRPRPRPFDNPRP, the “shrunken log2 fold change” value is -0.31.
The figure for RRIRLRPPRLPRPRPRPIDRPRP is -0.241; for RRIRWRPPRLPRPRPRPKLQPRP it is 0.182; for RRIRPRPPRLPRPRPRPWRSPRP it is 0.0793.
With RRIRERPPRLPRPRPRPMSPPRP, the “shrunken log2 fold change” value was -0.0381.
The figure for RRIRLRPPRLPRPRPRPDAFPRP is 0.0575; for RRIRHRPPRLPRPRPRPYADPRP it is -0.00783; for RRIRARPPRLPRPRPRPKWVPRP it is 0.222.
Consider RRIRCRPPRLPRPRPRPIIFPRP, for which the “shrunken log2 fold change” value is -0.726.
The figure for RRIRFRPPRLPRPRPRPHMNPRP is -0.774.
Turning to RRIRDRPPRLPRPRPRPCLIPRP, the “shrunken log2 fold change” value is 0.0225.
The figure for RRIRHRPPRLPRPRPRPAVRPRP is -0.273; for RRIRWRPPRLPRPRPRPWTPPRP it is 0.0119.
The figure for RRIRCRPPRLPRPRPRPFFEPRP is -0.0214.
The figure for RRIRDRPPRLPRPRPRPEWRPRP is 1.08.
RRIRVRPPRLPRPRPRPEMHPRP: the “shrunken log2 fold change” value was 0.209.
For the sequence RRIRKRPPRLPRPRPRPGDKPRP, the “shrunken log2 fold change” value was 0.0976.
On to RRIRERPPRLPRPRPRPWCCPRP, for which the “shrunken log2 fold change” value is -0.244.
The figure for RRIRRRPPRLPRPRPRPFVWPRP is -0.218; for RRIRQRPPRLPRPRPRPYNAPRP it is -0.0247.
For RRIRTRPPRLPRPRPRPYQRPRP, the “shrunken log2 fold change” value was -0.0311.
The figure for RRIRKRPPRLPRPRPRPFTGPRP is 0.0735; for RRIRGRPPRLPRPRPRPMTCPRP it is 0.133; for RRIRVRPPRLPRPRPRPGNPPRP it is -0.104.
The figure for RRIRSRPPRLPRPRPRPWFSPRP is -0.544.
